Data as given in the supplement of paper PMC10567573.

B1: TOR1AIP2 (parent)
chain: SPGHSSAGQEGEDTLRRRLLAPEA

Variants of: B1
Assay: protein stability index of a GFP-peptide fusion (GPS, HEK-293T) (PSI 1-6); higher = more stable
Conditions: c terminus: a fixed tail appended
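Further: lentivirally expressed fusions sorted by FACS into six bins by GFP to DsRed ratio, PSI derived from sequencing read proportions per bin multiplied by bin number.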

Protein stability index, by site and new letter:
D13: H 4.31 | I 3.88 | K 4.52 | L 3.77 | M 3.06 | N 4.27 | P 4.53 | Q 4.09 | R 3.32 | S 3.67 | T 3.65 | V 4.15 | W 2.96 | Y 2.8
T14: A 4.06 | C 2.67 | D 4.18 | E 4.4 | F 4.39 | G 4.41 | H 4.33 | I 4.42 | K 4.94 | L 4.84 | M 4.34 | N 3.63 | P 4.33 | Q 4.11 | R 4.65 | S 3.08 | V 3.97 | W 4.5 | Y 4.2
L15: A 5.47 | C 3.98 | D 5.7 | E 5.35 | F 4.3 | G 5.44 | H 5.13 | I 4.53 | K 4.96 | M 4.79 | N 5.49 | P 5.23 | Q 4.98 | R 5.01 | S 5.16 | T 5.31 | V 4.93 | W 3.92 | Y 4.89
R16: A 5.37 | C 5.14 | D 5.68 | E 5.46 | F 4.71 | G 5.41 | H 5.38 | I 5.06 | K 4.79 | L 4.61 | M 4.6 | N 5.23 | P 4.9 | Q 5.34 | S 5.63 | T 5.04 | V 5.51 | W 3.52 | Y 4.44
R17: A 4.63 | C 4.51 | D 5.46 | E 4.42 | F 2.09 | G 5 | H 3.85 | I 3.81 | K 4.76 | L 3.31 | M 3.54 | N 4.67 | P 5.04 | Q 4.37 | S 4.71 | T 4.58 | V 3.9 | W 2.36 | Y 2.48
R18: A 4.8 | C 4.4 | D 4.89 | E 5.45 | F 2.84 | G 5.1 | H 4.6 | I 3.07 | K 4.83 | L 2.99 | M 3.29 | N 4.98 | P 5.5 | Q 3.89 | S 5.01 | T 4.58 | V 4.14 | W 2.51 | Y 2.94
L19: A 5.4 | C 4.99 | D 5.35 | E 5.46 | F 4.73 | G 5.45 | H 5.52 | I 3.39 | K 5.54 | M 3.39 | N 5.34 | P 5.29 | Q 5.33 | R 4.89 | S 5.24 | T 5.55 | V 4.9 | W 4.3 | Y 4.86
L20: A 5.64 | C 5.49 | D 4.7 | E 4.9 | F 3.94 | G 5.54 | H 5.29 | I 4.94 | K 5.38 | M 5.01 | N 5.25 | P 5.15 | Q 5.63 | R 5.26 | S 4.95 | T 5.33 | V 5.21 | W 4.73 | Y 4.51
A21: C 3.31 | D 5.37 | E 5.23 | F 4.71 | G 5.31 | H 5.26 | I 4.51 | K 4.89 | L 4.58 | M 4.19 | N 4.9 | P 5.09 | Q 4.94 | R 4.89 | S 3.08 | T 5.39 | V 4.86 | W 4.16 | Y 4.38
P22: A 4.42
